Test results: IntAct's records for PubMed 23969831

B1: Atlastin-1 (Homo sapiens), Q8WXF7 (parent)
chain: MAKNRRDRNSWGGFSEKTYEWSSEEEEPVKKAGPVQVLIVKDDHSFELDETALNRILLSEAVRDKEVVAVSVAGAFRKGKSFLMDFMLRYMYNQESVDWVGDYNEPLTGFSWRGGSERETTGIQIWSEIFLINKPDGKKVAVLLMDTQGTFDSQSTLRDSATVFALSTMISSIQVYNLSQNVQEDDLQHLQLFTEYGRLAMEETFLKPFQSLIFLVRDWSFPYEFSYGADGGAKFLEKRLKVSGNQHEELQNVRKHIHSCFTNISCFLLPHPGLKVATNPNFDGKLKEIDDEFIKNLKILIPWLLSPESLDIKEINGNKITCRGLVEYFKAYIKIYQGEELPHPKSMLQATAEANNLAAVATAKDTYNKKMEEICGGDKPFLAPNDLQTKHLQLKEESVKLFRGVKKMGGEEFSRRYLQQLESEIDELYIQYIKHNDSKNIFHAARTPATLFVVIFITYVIAGVTGFIGLDIIASLCNMIMGLTLITLCTWAYIRYSGEYRELGAVIDQVAAALWDQGSTNEALYKLYSAAATHRHLYHQAFPTPKSESTEQSEKKKM
partner: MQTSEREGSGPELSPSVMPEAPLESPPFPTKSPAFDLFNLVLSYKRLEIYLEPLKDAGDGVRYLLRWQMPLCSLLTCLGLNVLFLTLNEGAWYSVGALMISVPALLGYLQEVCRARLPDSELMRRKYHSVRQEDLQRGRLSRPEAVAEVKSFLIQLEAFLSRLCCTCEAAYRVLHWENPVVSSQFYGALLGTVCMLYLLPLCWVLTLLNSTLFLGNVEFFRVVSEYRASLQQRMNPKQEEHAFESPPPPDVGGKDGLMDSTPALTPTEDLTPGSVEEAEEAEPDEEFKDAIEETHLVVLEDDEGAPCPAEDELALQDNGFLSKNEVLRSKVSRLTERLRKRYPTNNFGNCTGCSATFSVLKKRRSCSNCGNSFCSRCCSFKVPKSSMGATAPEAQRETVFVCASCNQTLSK
B2: Protrudin (Homo sapiens), Q5T4F4 (parent)
chain: B1 partner
partner: B1 chain
B3: Protrudin (Homo sapiens), Q5T4F4 (parent)
chain: B1 partner

Variants of: B1
Settings: with zfy27_human ZFYVE27, Q5T4F4

effect of a mutation on the interaction | Variant
with no effect | MAKNRRDRNSWGGFSEKTYEWSSEEEEPVKKAGPVQVLIVKDDHSFELDETALNRILLSEAVRDKEVVAVSVAGAFRKGKSFLMDFMLRYMYNQESVDWVGDYNEPLTGFSWRGGSERETTGIQIWSEIFLINKPDGKKVAVLLMDTQGTFDSQSTLRDSATVFALSTMISSIQVYNLSQNVQEDDLQHLQLFTEYGRLAMEETFLKPFQSLIFLVRDWSFPYEFSYGADGGAKFLEKRLKVSGNQHEELQNVRKHIHSCFTNISCFLLPHPGLKVATNPNFDGKLKEIDDEFIKNLKILIPWLLSPESLDIKEINGNKITCRGLVEYFKAYIKIYQGEELPHPKSMLQATAEANNLAAVATAKDTYNKKMEEICGGDKPFLAPNDLQTKHLQLKEESVKLFRGVKKMGGEEFSRRYLQQLESEIDELYIQYIKHNDSKNIFHAARTPATLFVVIFITYVIAGVTGFIGLDIIASLCNMIMGLTLITLCTWAYIRYSGEYRELGAVIDQVAAALWDQGATNEALYKLYSAAATHRHLYHQAFPTPKSESTEQSEKKKM [S519A]
with no effect | MAKNRRDRNSWGGFSEKTYEWSSEEEEPVKKAGPVQVLIVKDDHSFELDETALNRILLSEAVRDKEVVAVSVAGAFRKGKSFLMDFMLRYMYNQESVDWVGDYNEPLTGFSWRGGSERETTGIQIWSEIFLINKPDGKKVAVLLMDTQGTFDSQSTLRDSATVFALSTMISSIQVYNLSQNVQEDDLQHLQLFTEYGRLAMEETFLKPFQSLIFLVRDWSFPYEFSYGADGGAKFLEKRLKVSGNQHEELQNVRKHIHSCFTNISCFLLPHPGLKVATNPNFDGKLKEIDDEFIKNLKILIPWLLSPESLDIKEINGNKITCRGLVEYFKAYIKIYQGEELPHPKSMLQATAEANNLAAVATAKDTYNKKMEEICGGDKPFLAPNDLQTKHLQLKEESVKLFRGVKKMGGEEFSRRYLQQLESEIDELYIQYIKHNDSKNIFHAARTPATLFVVIFITYVIAGVTGFIALDIIASLCNMIMGLTLITLCTWAYIRYSGEYRELGAVIDQVAAALWDQGSTNEALYKLYSAAATHRHLYHQAFPTPKSESTEQSEKKKM [G469A]
with no effect | MAKNRRDRNSWGGFSEKTYEWSSEEEEPVKKAGPVQVLIVKDDHSFELDETALNRILLSEAVRDKEVVAVSVAGAFRKGKSFLMDFMLRYMYNQESVDWVGDYNEPLTGFSWRGGSERETTGIQIWSEIFLINKPDGKKVAVLLMDTQGTFDSQSTLRDSATVFALSTMISSIQVYNLSQNVQEDDLQHLQLFTEYGRLAMEETFLKPFQSLIFLVRDWSFPYEFSYGADGGAKFLEKRLKVSGNQHEELQNVRKHIHSCFTNISCFLLPHPGLKVATNPNFDGKLKEIDDEFIKNLKILIPWLLSPESLDIKEINGNKITCRGLVEYFKAYIKIYQGEELPHPKSMLQATAEANNLAAVATAKDTYNKKMEEICGGDKPFLAPNDLQTKHLQLKEESVKLFRGVKKMGGEEFSRRYLQQLESEIDELYIQYIKHNDSKNIFHAARTPATLFVVIFITYVIAGVTGFIGLDIIASLCNMIMGLTLITLCTWAYIWYSGEYRELGAVIDQVAAALWDQGSTNEALYKLYSAAATHRHLYHQAFPTPKSESTEQSEKKKM [R495W]
with no effect | MAKNRRDRNSWGGFSEKTYEWSSEEEEPVKKAGPVQVLIVKDDHSFELDETALNRILLSEAVRDKEVVAVSVAGAFRKGASFLMDFMLRYMYNQESVDWVGDYNEPLTGFSWRGGSERETTGIQIWSEIFLINKPDGKKVAVLLMDTQGTFDSQSTLRDSATVFALSTMISSIQVYNLSQNVQEDDLQHLQLFTEYGRLAMEETFLKPFQSLIFLVRDWSFPYEFSYGADGGAKFLEKRLKVSGNQHEELQNVRKHIHSCFTNISCFLLPHPGLKVATNPNFDGKLKEIDDEFIKNLKILIPWLLSPESLDIKEINGNKITCRGLVEYFKAYIKIYQGEELPHPKSMLQATAEANNLAAVATAKDTYNKKMEEICGGDKPFLAPNDLQTKHLQLKEESVKLFRGVKKMGGEEFSRRYLQQLESEIDELYIQYIKHNDSKNIFHAARTPATLFVVIFITYVIAGVTGFIGLDIIASLCNMIMGLTLITLCTWAYIRYSGEYRELGAVIDQVAAALWDQGSTNEALYKLYSAAATHRHLYHQAFPTPKSESTEQSEKKKM [K80A]

Variants of: B2
Settings: with atla1_human ATL1, Q8WXF7

effect of a mutation on the interaction | Variant
with no effect | MQTSEREGSGPELSPSVMPEAPLESPPFPTKSPAFDLFNLVLSYKRLEIYLEPLKDAGDGVRYLLRWQMPLCSLLTCLGLNVLFLTLNEGAWYSVGALMISVPALLGYLQEVCRARLPDSELMRRKYHSVRQEDLQRGRLSRPEAVAEVKSFLIQLEAFLSRLCCTCEAAYRVLHWENPVVSSQFYGALLVTVCMLYLLPLCWVLTLLNSTLFLGNVEFFRVVSEYRASLQQRMNPKQEEHAFESPPPPDVGGKDGLMDSTPALTPTEDLTPGSVEEAEEAEPDEEFKDAIEETHLVVLEDDEGAPCPAEDELALQDNGFLSKNEVLRSKVSRLTERLRKRYPTNNFGNCTGCSATFSVLKKRRSCSNCGNSFCSRCCSFKVPKSSMGATAPEAQRETVFVCASCNQTLSK [G191V]

Variants of: B3
Settings: with reep5_human REEP5, Q00765
Chain of reep5_human REEP5, Q00765 (Q00765 whole entry): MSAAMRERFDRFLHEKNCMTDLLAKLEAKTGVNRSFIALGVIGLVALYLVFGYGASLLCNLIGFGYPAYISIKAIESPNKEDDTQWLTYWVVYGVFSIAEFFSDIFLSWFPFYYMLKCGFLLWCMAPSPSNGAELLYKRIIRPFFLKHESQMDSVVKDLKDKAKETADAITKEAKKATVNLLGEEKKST

effect of a mutation on the interaction | Variant
decreasing interaction strength | MQTSEREGSGPELSPSVMPEAPLESPPFPTKSPAFDLFNLVLSYKRLEIYLEPLKDAGDGVRYLLRWQMPLCSLLTCLGLNVLFLTLNEGAWYSVGALMISVPALLGYLQEVCRARLPDSELMRRKYHSVRQEDLQRGRLSRPEAVAEVKSFLIQLEAFLSRLCCTCEAAYRVLHWENPVVSSQFYGALLGTVCMLYLLALCWVLTLLNSTLFLGNVEFFRVVSEYRASLQQRMNPKQEEHAFESPPPPDVGGKDGLMDSTPALTPTEDLTPGSVEEAEEAEPDEEFKDAIEETHLVVLEDDEGAPCPAEDELALQDNGFLSKNEVLRSKVSRLTERLRKRYPTNNFGNCTGCSATFSVLKKRRSCSNCGNSFCSRCCSFKVPKSSMGATAPEAQRETVFVCASCNQTLSK [P200A]
with no effect | MQTSEREGSGPELSPSVMPEAPLESPPFPTKSPAFDLFNLVLSYKRLEIYLEPLKDAGDGVRYLLRWQMPLCSLLTCLGLNVLFLTLNEGAWYSVGALMISVPALLGYLQEVCRARLPDSELMRRKYHSVRQEDLQRGRLSRPEAVAEVKSFLIQLEAFLSRLCCTCEAAYRVLHWENPVVSSQFYGALLVTVCMLYLLPLCWVLTLLNSTLFLGNVEFFRVVSEYRASLQQRMNPKQEEHAFESPPPPDVGGKDGLMDSTPALTPTEDLTPGSVEEAEEAEPDEEFKDAIEETHLVVLEDDEGAPCPAEDELALQDNGFLSKNEVLRSKVSRLTERLRKRYPTNNFGNCTGCSATFSVLKKRRSCSNCGNSFCSRCCSFKVPKSSMGATAPEAQRETVFVCASCNQTLSK [G191V]
